Data: the Immune Epitope Database (IEDB)
pKd: −log10 of the molar value. One block for each sequence: values may come before it.

Legend:
[1] = biological target: HLA-A*69:01; assay: IEDB peptide-MHC binding, purified MHC/direct/fluorescence; filed as Kd, often an IC50 or EC50 that approximates it; ≥ and ≤ were set here for values at or beyond the usual limits of such assays
[2] = biological target: HLA-A*68:02; assay: as above; details: source organism: Cryptosporidium parvum Iowa II
[3] = biological target: HLA-A*03:01; assay: as above
[4] = biological target: HLA-A*02:12; assay: as above
[5] = biological target: HLA-B*46:01; assay: as above
[6] = biological target: HLA-B*18:01; assay: as above
[7] = biological target: HLA-A*29:02; assay: as above
[8] = biological target: HLA-B*15:17; assay: as above; details: source organism: Cryptosporidium parvum Iowa II
[9] = biological target: HLA-A*24:03; assay: as above
[10] = biological target: HLA-A*02:19; assay: as above
[11] = biological target: HLA-B*51:01; assay: as above
[12] = biological target: HLA-A*02:03; assay: as above
[13] = biological target: HLA-B*57:01; assay: as above
[14] = biological target: HLA-A*26:01; assay: as above
[15] = biological target: HLA-A*02:01; assay: as above
[16] = biological target: HLA-B*27:03; assay: as above
[17] = biological target: HLA-A*02:16; assay: as above
[18] = biological target: HLA-A*02:11; assay: as above
[19] = biological target: HLA-B*15:01; assay: as above
[20] = biological target: HLA-A*68:02; assay: IEDB peptide-MHC binding, purified MHC/competitive/fluorescence; filed as Kd, often an IC50 or EC50 that approximates it; ≥ and ≤ were set here for values at or beyond the usual limits of such assays; details: source organism: Human immunodeficiency virus 1
[21] = biological target: HLA-A*30:01; assay: as above; details: source organism: Human immunodeficiency virus 1
[22] = biological target: HLA-B*15:09; assay: as above; details: source organism: Human immunodeficiency virus 1
[23] = biological target: HLA-A*02:03; assay: as above; details: source organism: Human immunodeficiency virus 1
[24] = biological target: HLA-B*08:01; assay: as above; details: source organism: Human immunodeficiency virus 1
[25] = biological target: HLA-A*26:01; assay: as above; details: source organism: Human immunodeficiency virus 1
[26] = biological target: HLA-A*02:01; assay: as above; details: source organism: Human immunodeficiency virus 1
[27] = biological target: HLA-A*02:06; assay: as above; details: source organism: Human immunodeficiency virus 1
[28] = biological target: HLA-A*26:02; assay: as above; details: source organism: Human immunodeficiency virus 1
[29] = biological target: HLA-B*07:02; assay: as above; details: source organism: Human immunodeficiency virus 1
[30] = biological target: HLA-B*39:01; assay: IEDB peptide-MHC binding, purified MHC/direct/fluorescence; filed as Kd, often an IC50 or EC50 that approximates it; ≥ and ≤ were set here for values at or beyond the usual limits of such assays
[31] = biological target: HLA-C*06:02; assay: as above
[32] = biological target: HLA-C*15:02; assay: as above; details: source organism: Human immunodeficiency virus 1
[33] = biological target: HLA-C*14:02; assay: as above; details: source organism: Human immunodeficiency virus 1
[34] = biological target: HLA-B*35:01; assay: as above; details: source organism: Mycobacterium tuberculosis str. Haarlem
[35] = biological target: HLA-B*07:02; assay: as above; details: source organism: Mycobacterium tuberculosis str. Haarlem
[36] = biological target: HLA-B*73:01; assay: as above
[37] = biological target: HLA-B*45:06; assay: IEDB peptide-MHC binding, purified MHC/competitive/fluorescence; filed as Kd, often an IC50 or EC50 that approximates it; ≥ and ≤ were set here for values at or beyond the usual limits of such assays; details: source organism: Homo sapiens
[38] = biological target: HLA-B*83:01; assay: as above; details: source organism: Homo sapiens
[39] = biological target: HLA-B*15:42; assay: as above; details: source organism: Homo sapiens
[40] = biological target: HLA-B*27:05; assay: IEDB peptide-MHC binding, purified MHC/direct/fluorescence; filed as Kd, often an IC50 or EC50 that approximates it; ≥ and ≤ were set here for values at or beyond the usual limits of such assays; details: source organism: Yersinia enterocolitica
[41] = biological target: HLA-B*48:01; assay: as above; details: source organism: Yersinia enterocolitica
[42] = source organism: Cryptosporidium parvum Iowa II
[43] = source organism: Mycobacterium tuberculosis str. Haarlem

Sequence: DHIPIINTL
pKd [1, 42]: ≤ 4.70
pKd [2]: ≤ 4.70
pKd [3, 42]: ≤ 4.70
pKd [4, 42]: ≤ 4.70
pKd [5, 42]: ≤ 4.70
pKd [6, 42]: ≤ 4.70
pKd [7, 42]: ≤ 4.70
pKd [8]: ≤ 4.70
pKd [9, 42]: ≤ 4.70
pKd [10, 42]: ≤ 4.70
pKd [11, 42]: ≤ 4.70
pKd [12, 42]: ≤ 4.70
pKd [13, 42]: ≤ 4.70
pKd [14, 42]: ≤ 4.70
pKd [15, 42]: ≤ 4.70
pKd [16, 42]: ≤ 4.70
pKd [17, 42]: ≤ 4.70
pKd [18, 42]: ≤ 4.70
pKd [19, 42]: ≤ 4.70

Sequence: EIKSLFNTI
pKd [20]: 7.44
pKd [21]: ≤ 4.70
pKd [22]: ≤ 4.70
pKd [23]: ≤ 4.70
pKd [24]: 5.79
pKd [25]: ≤ 4.70
pKd [26]: ≤ 4.70
pKd [27]: 7.21
pKd [28]: ≤ 4.70
pKd [29]: 5.22

Sequence: ILTRLALFF
pKd [1, 42]: ≤ 4.70
pKd [2]: ≤ 4.70
pKd [3, 42]: ≤ 4.70
pKd [4, 42]: ≤ 4.70
pKd [5, 42]: ≤ 4.70
pKd [6, 42]: ≤ 4.70
pKd [8]: ≤ 4.70
pKd [9, 42]: ≤ 4.70
pKd [10, 42]: ≤ 4.70
pKd [11, 42]: ≤ 4.70
pKd [12, 42]: ≤ 4.70
pKd [30, 42]: ≤ 4.70
pKd [13, 42]: ≤ 4.70
pKd [14, 42]: ≤ 4.70
pKd [16, 42]: ≤ 4.70
pKd [17, 42]: ≤ 4.70
pKd [18, 42]: ≤ 4.70
pKd [19, 42]: ≤ 4.70

Sequence: RMYSPVSIL
pKd ([31]; source organism: Human immunodeficiency virus 1): 5.51
pKd [32]: 6.16
pKd [33]: 6.15

Sequence: WASGVPAAT
pKd [3, 43]: ≤ 4.70
pKd [34]: 6.50
pKd [4, 43]: ≤ 4.70
pKd [5, 43]: ≤ 4.70
pKd [6, 43]: ≤ 4.70
pKd [7, 43]: ≤ 4.70
pKd [9, 43]: ≤ 4.70
pKd [10, 43]: ≤ 4.70
pKd [11, 43]: ≤ 4.70
pKd [12, 43]: ≤ 4.70
pKd [30, 43]: ≤ 4.70
pKd [13, 43]: ≤ 4.70
pKd [14, 43]: ≤ 4.70
pKd [15, 43]: ≤ 4.70
pKd [16, 43]: ≤ 4.70
pKd [17, 43]: ≤ 4.70
pKd [18, 43]: ≤ 4.70
pKd [35]: 5.19
pKd [19, 43]: ≤ 4.70

pKd ([36]; source organism: Homo sapiens): 7.65
pKd [37]: 6.42
pKd [38]: ≤ 5.30
pKd [39]: ≤ 5.30
Sequence: YEHYFVFAA

Sequence: YLYDETQDV
pKd ([1]; source organism: Mycobacterium tuberculosis): 5.90
pKd [4, 43]: 8.22
pKd ([31]; source organism: Mycobacterium tuberculosis variant bovis BCG str. Pasteur 1173P2): 7.39
pKd [12, 43]: 8.70

Sequence: YRLVSAVEK
pKd ([36]; source organism: Yersinia enterocolitica): ≤ 4.70
pKd [40]: 7.52
pKd [41]: ≤ 4.70
